Assay results reported in article PMC4072508, “Genome-Wide Prediction and Validation of Peptides That Bind Human Prosurvival Bcl-2 Proteins” (PLoS Computational Biology, 2014).

T1: Bcl-w, Q92843
T1 chain: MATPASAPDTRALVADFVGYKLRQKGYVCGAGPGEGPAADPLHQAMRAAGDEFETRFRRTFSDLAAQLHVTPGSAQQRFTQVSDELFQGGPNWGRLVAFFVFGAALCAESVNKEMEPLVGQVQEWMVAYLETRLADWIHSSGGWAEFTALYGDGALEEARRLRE

T2: Bfl-1, Q16548
T2 chain: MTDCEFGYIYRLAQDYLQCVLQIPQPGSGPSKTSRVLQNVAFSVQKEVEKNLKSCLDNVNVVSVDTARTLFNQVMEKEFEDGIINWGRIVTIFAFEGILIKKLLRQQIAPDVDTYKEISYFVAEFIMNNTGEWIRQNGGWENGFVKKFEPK

T3: Mcl-1, Q07820
T3 chain: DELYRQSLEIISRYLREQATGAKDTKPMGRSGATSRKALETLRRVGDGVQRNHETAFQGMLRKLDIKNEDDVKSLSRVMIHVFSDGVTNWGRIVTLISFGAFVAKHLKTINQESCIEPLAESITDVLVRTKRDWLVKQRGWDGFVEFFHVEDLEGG


What was measured:
Experiment in all cases: peptide SPOT array, c-Myc-tagged receptor at 1 uM or 100 nM, anti-c-Myc-Cy3
Bcl-2, P10415 = target: Bcl-2, P10415
Bcl-w, Q92843 = target: T1, Bcl-w, Q92843
Bfl-1, Q16548 = target: T2, Bfl-1, Q16548
Bcl-xL, Q07817 = target: Bcl-xL, Q07817
Mcl-1, Q07820 = target: T3, Mcl-1, Q07820

Sequence of Bcl-xL, Q07817 (Q07817 1-209): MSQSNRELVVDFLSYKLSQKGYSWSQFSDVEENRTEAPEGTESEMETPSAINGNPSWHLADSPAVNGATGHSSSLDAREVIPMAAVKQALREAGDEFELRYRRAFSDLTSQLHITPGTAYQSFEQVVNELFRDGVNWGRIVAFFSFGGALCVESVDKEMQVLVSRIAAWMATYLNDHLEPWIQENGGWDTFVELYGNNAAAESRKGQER
Sequence of Bcl-2, P10415 (P10415 1-217): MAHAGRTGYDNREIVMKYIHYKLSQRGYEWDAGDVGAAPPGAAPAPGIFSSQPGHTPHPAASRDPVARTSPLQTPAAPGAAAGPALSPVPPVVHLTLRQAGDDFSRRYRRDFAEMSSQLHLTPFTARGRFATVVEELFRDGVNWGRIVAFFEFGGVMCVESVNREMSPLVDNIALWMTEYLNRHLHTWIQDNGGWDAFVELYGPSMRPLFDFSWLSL

| Binder | SPOT signal as a fraction of Bim BH3's signal on the same receptor and array (Bcl-2, P10415) | SPOT signal as a fraction of Bim BH3's signal on the same receptor and array (Bcl-w, Q92843) | SPOT signal as a fraction of Bim BH3's signal on the same receptor and array (Bfl-1, Q16548) | SPOT signal as a fraction of Bim BH3's signal on the same receptor and array (Bcl-xL, Q07817) | SPOT signal as a fraction of Bim BH3's signal on the same receptor and array (Mcl-1, Q07820) |
| --- | --- | --- | --- | --- | --- |
| AYRGRGIAKHLAKAALDFVVEEDLKA [C17orf103] | 0.05 | 0.29 | 0.11 | 0.36 | 0.07 |
| DAIIQMIVELLKRVGDQWEEEQSLAS [C6orf222] | 0.01 | 0.33 | 0.06 | 0.16 | 0.09 |
| CLSCDLCGCRLGEVGRRLYYKLGRKL [LMO2] | 0.59 | 1.8 | 1.61 | 1.18 | 0.86 |
| YTCRGHIPGFLQTTADEFCFYYARKD [HHIP] | 0.02 | 0.1 | 0.06 | 0.07 | 0.04 |
| DLSSTFVSLALRKVGDWPLSARREKG [TTC31] | 0.2 | 1.09 | 0.75 | 0.29 | 0.47 |
| EQILAKIVELLKYSGDQLERKLKKDK [BCL2L14] | 0.49 | 0.74 | 0.75 | – | – |
| KGKIDVCIVLLQHGADPNIRNTDGKS | 0.02 | 0.03 | 0.1 | – | – |
| SQRGTDFSVLLSSAGDSFSQFRFAEE [AVEN] | 0.02 | 0.07 | 0.03 | 0.16 | 0.06 |
| PFDCRDYAVVLRKYADKIYNISMKHP [FOLH1B] | 0.36 | 1.25 | 0.63 | – | – |
| SGEFARICRDLSHIGDAVVISCAKDG [PCNA] | 0.01 | 0.03 | 0.03 | – | – |

More lines, now with the values ahead:

| SPOT signal as a fraction of Bim BH3's signal on the same receptor and array (Bcl-2, P10415) | SPOT signal as a fraction of Bim BH3's signal on the same receptor and array (Bcl-w, Q92843) | SPOT signal as a fraction of Bim BH3's signal on the same receptor and array (Bfl-1, Q16548) | SPOT signal as a fraction of Bim BH3's signal on the same receptor and array (Bcl-xL, Q07817) | SPOT signal as a fraction of Bim BH3's signal on the same receptor and array (Mcl-1, Q07820) | Binder |
| --- | --- | --- | --- | --- | --- |
| 0.72 | 0.74 | 0.43 | – | – | MEGSDALALRLACIGDEMDVSLRAPR [BIK] |
| 0.49 | 1.08 | 0.91 | 1.08 | 0.69 | VIKQRRLPDQLSKLADRIQLSGRYYL [RAPGEF2] |
| 0.01 | 0.02 | 0.02 | – | – | HVDGLHSSEELRNLGWDFSQEKPSTT [SETD2] |
| 0.01 | 0.01 | 0.01 | 0.02 | 0.02 | ALNAQPSAEELSKIADSVNLPLDVVK [ZEB1] |
| 0.01 | 0.02 | 0.01 | 0.02 | 0.02 | GVAASDFIRSLDHCGDLALEGVFSHK [NLRC4] |
| 0.07 | 0.48 | 0.34 | – | – | EGTKIVLGKQLIESADEVRRKSLVLK [TAF1] |
| 0.02 | 0.03 | 0.03 | 0.04 | 0.03 | NWFGDWSTEALYQVGKEFTSKMDLEK [DYNC1H1] |
| 0.01 | 0.02 | 0.02 | 0.03 | 0.04 | VDVIDDHERGLIRNGRDFLLALERQG [DEDD] |
| 0.01 | 0.02 | 0.03 | 0.03 | 0.02 | QLRLSDAGQYLCQAGDDSNSNKKNAD [PIGR] |
| 0.13 | 0.5 | 0.48 | – | – | HPKRKQVTELLLRKGANVNEKNKDFM |
| 0.02 | 0.07 | 0.07 | 0.13 | 0.05 | LNELYQRAKKLSKAGDNIPEEQPVAS [TMX2] |
| 0.06 | 0.13 | 0.33 | 0.1 | 0.13 | DISALTASNLLKKYAEKYSGILEGPV [FIGN] |
| 0.02 | 0.04 | 0.08 | – | – | FQQLRHRIQDLEQLAKEQDKESEKQL [BNIP1] |
| 0.27 | 0.69 | 0.74 | 0.65 | 0.38 | VFERCELARTLKRLGMDGYRGISLAN [LYZ] |
